Measured values: patent US7470669B2, “Isolated polypeptide comprising a leptin fragment” (Serono Genetics Institute, S.A., priority 1999, dated 2008)

B1: Lactoferrin: a milk protein that inhibits the removal of dietary lipid by the liver; inhibitor of LSR (protein, UniProt P02788 20-710, looked up)
Lactotransferrin: GRRRSVQWCAVSQPEATKCFQWQRNMRKVRGPPVSCIKRDSPIQCIQAIAENRADAVTLDGGFIYEAGLAPYKLRPVAAEVYGTERQPRTHYYAVAVVKKGGSFQLNELQGLKSCHTGLRRTAGWNVPIGTLRPFLNWTGPPEPIEAAVARFFSASCVPGADKGQFPNLCRLCAGTGENKCAFSSQEPYFSYSGAFKCLRDGAGDVAFIRESTVFEDLSDEAERDEYELLCPDNTRKPVDKFKDCHLARVPSHAVVARSVNGKEDAIWNLLRQAQEKFGKDKSPKFQLFGSPSGQKDLLFKDSAIGFSRVPPRIDSGLYLGSGYFTAIQNLRKSEEEVAARRARVVWCAVGEQELRKCNQWSGLSEGSVTCSSASTTEDCIALVLKGEADAMSLDGGYVYTAGKCGLVPVLAENYKSQQSSDPDPNCVDRPVEGYLAVAVVRRSDTSLTWNSVKGKKSCHTAVDRTAGWNIPMGLLFNQTGSCKFDEYFSQSCAPGSDPRSNLCALCIGDEQGENKCVPNSNERYYGYTGAFRCLAENAGDVAFVKDVTVLQNTDGNNNEAWAKDLKLADFALLCLDGKRKPVTEARSCHLAMAPNHAVVSRMDKVERLKQVLLHQQAKFGRNGSDCPDKFCLFQSETKNLLFNDNTECLARLHGKTTYEKYLGPQYVAGITNLKKCSTSPLLEACEFLRK
B2: C-terminal portion from AA 353 to 541: truncated human LSR construct, AA 353 to 541 (protein, UniProt Q86X29 353-541, looked up, fragment)
chain: PGGYPGDVDRSSSAGGQGSYVPLLRDTDSSVASEVRSGYRIQASQQDDSMRVLYYMEKELANFDPSRPGPPSGRVERAMSEVTSLHEDDWRSRPSRGPALTPIRDEEWGGHSPRSPRGWDQEPAREQAGGGWRARRPRARSVDALDDLTPPSTAESGSRSPTSNGGRSRAYMPPRSRSRDDLYDQDDSR

Columns and labels:
ob/ob mice = assay: Postprandial plasma TG response after high-fat test meal in ob/ob mice; type: in vivo, mouse; details: i.v. 0.5 μg recombinant mouse leptin and/or 2.5 mg lactoferrin, mean ± SD
Description: FIGS. 11A and 11B show the effect of mouse leptin (FIG. 11A) or leptin peptide (FIG. 11B) on postprandial plasma TG response in ob/ob mice. […] Postprandial triglyceridemia was measured as described previously. Each point represents the mean±SEM (A: saline, n=8, leptin, n=7; leptin peptide: saline, n=8, leptin, n=8). […] Primary cultures of rat hepatocytes were incubated 30 min at 37° C. with increasing concentrations of mouse leptin peptide. Oleate (0.5 mM) and ^125I-LDL (20 μg/mL) were added and the cells were incubated 2 h at 37° C. After washing, the amount of 125I-LDL bound to the cell surface was measured as described in the Examples section herein.
Mice that were fasted for 2-3 hours were gavage-fed 300 μL of a test meal consisting of 60% fat (37% saturated, 27% mono-, and 36% polyunsaturated fatty acids), 20% protein and 20% carbohydrate, and providing 56 kcal of energy/kg (1.5 g butter, 1.5 g sunflower oil, 2.5 g nonfat dry milk, 2.5 g sucrose and 3 ml water). […] TG concentrations were determined using a commercially available enzymatic kit with controls included in each assay (Precinorm L, Roche-Boehringer Mannheim; Lyotrol N, BioMérieux).
The inhibition of the intestinal absorption of dietary lipids by leptin was also investigated. […] Blood samples were taken at 2 and 3 h after the test meal, and plasma TG concentrations were measured (see Table, below). […]

[1] = tested on: bovine brain capillary endothelial cells; assay: Leptin transcytosis in blood-brain barrier in vitro model; type: cell-based; details: 10 ng/mL 125I-leptin + 2 mg/mL lactoferrin
Description: Cells were incubated with ^125I-leptin alone (10,000 dpm/ng) (closed squares), with 1 μg/mL unlabelled leptin (triangles), 50 μg/mL MP (circles), 50 μg/mL HP (open squares), or 2 mg/mL lactoferrin (asterisks).
Human leptin transport through the blood-brain barrier (BBB) is studied using an in vitro model (Dehouck, et al J Neurochem 54:1798-801, 1990 hereby incorporated herein by reference in its entirety including any figures, tables, or drawings). This model closely mimics the in vivo situation with regard to the selective passage of nutrients and drugs through the cerebro-vascular endothelium. […] Briefly, this model consists of a co-culture of bovine brain capillary endothelial cells (ECs) and rat astrocytes (FIG. 31). The astrocytes are seeded on the plastic of a six-well dish and grown for 3 weeks. […]
Leptin transcytosis: Experiments were performed on brain capillary endothelial cells in coculture with astrocytes for 16 days. […] At the end of the experiment, the amount of radioactivity of each well was counted. […]
The transport of molecules through the endothelial monolayer was determined for each time point as % passage: % passage of radiolabelled molecule through the endothelium: dpm found in the lower compartment at a time point divided by the initial dpm found in the upper compartment: % transport at 30 min=(lower dpm t30/upper dpm)*100.

LSR = assay: BUD assay of 125I-LDL in PLC cells transfected with truncated human LSR; type: cell-based; details: corrected for total protein, depending on oleate concentration
Text: Method of Cloning & Testing. • 1. Digest Human LSR plasmids with enzymes of interest under appropriate conditions. Separate the appropriate insert fragment from the vector using agarose gel electrophoresis and Qiaquick gel extraction columns. Note: For constructs 1, 2, 3, 4a, 5, and 6 pTracerCMV2 LSR α was used as the source for the insert. For construct 4b, pTracerCMV2 LSR α′ was used as the source for the insert. For 4c, pTracerCMV2 LSR β was used as the source for the insert. • 2. Digest the pcDNA/HisMax vector in the appropriate reading frame with the enzymes of interest. Purify using agarose gel electrophoresis and Qiaquick gel extraction columns. • 3. If necessary, treat insert fragments with Klenow DNA polymerase or T4 DNA polymerase I to blunt 3′ overhangs. […] Verify correct clones by having them sequenced to ensure that they are in the proper reading frame and that there are no amino acid changes. • 8. […]
BUD Assay Methods: • 1. […] Remove suramin into gamma counter tubes, and count for radioactivity. […] Recover the cell lysates into gamma counter tubes and count for radioactivity. […] After cell lysates have been counted, determine the protein concentration per mL so that data can be reported as ng ^125I-LDL bound/mg of total protein. Protein is determined using the BCA assay from Pierce according to the manufacturer's instructions. […]

Molecule	Plasma TG 2-3 hours after test meal (ob/ob mice)	amount of leptin transported [1]	increase in LDL metabolism (LSR) [fold]
B1	2.02 ± 0.26^¶ mg/mL	significantly inhibited	–
B2	–	–	~2
